Data from patent US20220348651A1 (Novartis, published 2022).
“And” between values parts separate entries of the source, which are not always exact repeats. Equal values may be shown once.

How the values were obtained:
[1] = target: T1, Human ENTPD1 (NP_001767) expressed on NIH/3T3 cells (human, UniProt P49961 1-510); assay: flow cytometry, NIH/3T3-ENTPD1 cells
T1 construct: also called NIH/3T3-ENTPD1; CD39
T1 sequence: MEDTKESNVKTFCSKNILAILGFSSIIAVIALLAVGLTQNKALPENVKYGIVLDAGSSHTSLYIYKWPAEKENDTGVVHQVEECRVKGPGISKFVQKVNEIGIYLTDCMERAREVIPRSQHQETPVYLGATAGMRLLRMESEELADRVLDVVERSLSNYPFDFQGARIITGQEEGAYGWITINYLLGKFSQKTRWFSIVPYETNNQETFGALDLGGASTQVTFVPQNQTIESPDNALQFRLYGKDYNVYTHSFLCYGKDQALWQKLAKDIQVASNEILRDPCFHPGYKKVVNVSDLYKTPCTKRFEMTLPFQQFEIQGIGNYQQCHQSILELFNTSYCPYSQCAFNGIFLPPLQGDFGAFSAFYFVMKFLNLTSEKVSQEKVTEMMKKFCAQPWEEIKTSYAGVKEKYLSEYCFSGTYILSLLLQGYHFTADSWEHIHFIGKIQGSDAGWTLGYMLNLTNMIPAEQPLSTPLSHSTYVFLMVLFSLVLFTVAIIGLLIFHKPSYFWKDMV

[2] = target: T2, recombinant human ENTPD2 extracellular domain (residues 29-462) with C-terminal Avi-His6 tag (human, UniProt Q9Y5L3 29-462, biotinylated on the AviTag in the epitope binning assay); assay: SPR Biacore, mAb captured, ECD analyte, 25C
T2 construct: also called human ENTPD2 ECD; Human ENTPD2-Avi-His6 protein

[3] = target: T2, recombinant human ENTPD2 extracellular …; assay: cell-based or functional assay
ENTPD3 of H520 cells = target: T3, ENTPD3 of H520 cells (UniProt O75355 1-529, limits assumed); assay: flow cytometry, H520 cells
T3 construct: whole, on cells
T3 sequence (looked up): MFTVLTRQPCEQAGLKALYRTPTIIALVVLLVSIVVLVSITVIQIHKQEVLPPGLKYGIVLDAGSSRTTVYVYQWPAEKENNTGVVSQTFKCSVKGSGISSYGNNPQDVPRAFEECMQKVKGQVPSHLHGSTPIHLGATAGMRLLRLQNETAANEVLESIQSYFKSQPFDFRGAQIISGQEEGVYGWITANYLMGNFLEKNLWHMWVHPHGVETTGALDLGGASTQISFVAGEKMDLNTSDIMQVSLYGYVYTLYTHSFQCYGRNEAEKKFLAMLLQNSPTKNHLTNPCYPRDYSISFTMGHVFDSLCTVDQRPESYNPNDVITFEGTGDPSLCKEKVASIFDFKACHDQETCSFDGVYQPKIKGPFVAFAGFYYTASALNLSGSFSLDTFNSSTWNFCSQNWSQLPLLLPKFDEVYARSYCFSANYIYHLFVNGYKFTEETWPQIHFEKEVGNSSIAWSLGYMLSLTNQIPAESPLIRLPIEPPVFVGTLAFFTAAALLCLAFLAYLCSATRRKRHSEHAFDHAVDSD

ENTPD8 of H520 cells = target: T4, ENTPD8 of H520 cells (UniProt Q5MY95 1-495, limits assumed); assay: flow cytometry, H520 cells
T4 construct: whole, on cells
T4 sequence (looked up): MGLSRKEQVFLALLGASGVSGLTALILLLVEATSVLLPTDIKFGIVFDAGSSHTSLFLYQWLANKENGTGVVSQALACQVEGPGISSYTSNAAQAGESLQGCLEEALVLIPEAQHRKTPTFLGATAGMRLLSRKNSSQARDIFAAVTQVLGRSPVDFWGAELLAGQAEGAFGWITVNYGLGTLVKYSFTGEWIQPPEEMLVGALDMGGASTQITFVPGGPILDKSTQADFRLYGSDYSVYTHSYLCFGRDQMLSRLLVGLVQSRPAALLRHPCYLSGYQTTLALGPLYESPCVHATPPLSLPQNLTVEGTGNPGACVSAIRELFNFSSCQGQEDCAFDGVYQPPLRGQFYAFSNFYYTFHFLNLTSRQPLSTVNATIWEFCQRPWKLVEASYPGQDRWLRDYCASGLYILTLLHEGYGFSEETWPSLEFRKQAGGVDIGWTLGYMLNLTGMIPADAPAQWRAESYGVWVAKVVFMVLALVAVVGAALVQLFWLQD

[4] = target: human FcγRIIIa, V158 (high affinity variant) on engineered Jurkat cells (human, UniProt P08637 17-254); assay: cell-based or functional assay
[5] = target: T5, human ENTPD2 expressed on cells (human, UniProt Q9Y5L3 1-495); assay: flow cytometry, NIH3T3 human ENTPD2 cells
T5 construct: full-length human ENTPD2 on engineered cells; also called NIH3T3 humanENTPD2; NIH/3T3-hENTPD2
T5 sequence: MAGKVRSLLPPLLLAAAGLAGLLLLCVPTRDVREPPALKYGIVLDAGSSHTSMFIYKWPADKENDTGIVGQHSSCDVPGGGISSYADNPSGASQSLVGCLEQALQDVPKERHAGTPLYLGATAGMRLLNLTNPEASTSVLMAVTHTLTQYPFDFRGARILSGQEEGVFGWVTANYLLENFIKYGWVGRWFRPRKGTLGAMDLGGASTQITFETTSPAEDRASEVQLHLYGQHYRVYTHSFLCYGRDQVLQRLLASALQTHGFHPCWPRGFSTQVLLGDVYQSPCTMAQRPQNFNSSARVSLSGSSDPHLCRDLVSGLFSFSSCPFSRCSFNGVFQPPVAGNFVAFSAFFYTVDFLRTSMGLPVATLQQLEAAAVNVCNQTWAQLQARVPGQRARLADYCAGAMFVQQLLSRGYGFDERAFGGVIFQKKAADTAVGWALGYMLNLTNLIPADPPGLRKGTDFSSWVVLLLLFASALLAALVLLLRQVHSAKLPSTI

Chain of human FcγRIIIa, V158 (high affinity variant) on engineered Jurkat cells (P08637 other isoform, or with tags, fused parts or gaps mutant limits assumed): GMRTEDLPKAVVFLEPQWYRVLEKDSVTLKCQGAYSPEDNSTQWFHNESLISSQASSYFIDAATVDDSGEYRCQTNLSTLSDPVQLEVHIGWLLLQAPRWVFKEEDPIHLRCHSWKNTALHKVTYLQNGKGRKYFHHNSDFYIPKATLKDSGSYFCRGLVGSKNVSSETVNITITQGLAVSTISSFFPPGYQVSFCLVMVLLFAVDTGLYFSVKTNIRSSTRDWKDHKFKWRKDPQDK

Row | Binder | binding result [1] | Kd [2] | koff [2] | kon [2] | IC50, ENTPD2 Biochemical Assay at 1 uM ATP [3] | binding result (ENTPD3 of H520 cells) | binding result (ENTPD8 of H520 cells) | EC50, Jurkat FcγRIIIa V158 NFAT-luciferase reporter with RKO cells [4] | EC50 [5]
1 | ANTI-HUMAN ENTPD2 MAB1 (antibody, human IgG1, kappa, humanized from mAb17; human IgG1, kappa; also called anti-ENTPD2 mAb1) heavy: not shown light: DIQLTQSPSSLSASVGDRVTITCSASSSVSYIHWFQQKPGKAPKLLIYSTSNLASGVPSRFSGSGSGTFFTLTISSLQPEDFATYFCHQWSSYPWTFGQGTKVEIKRTVAAPSVFIFPPSDEQLKSGTASVVCLLNNFYPREAKVQWKVDNALQSGNSQESVTEQDSKDSTYSLSSTLTLSKADYEKHKVYACEVTHQGLSSPVTKSFNRGEC | no binding (tested: 50 nM) | 1.7 nM | 0.00019 s⁻¹ | 110000 M⁻¹ s⁻¹ | 0.52 nM | no binding (tested: 50 nM) | no binding (tested: 50 nM) | 17.3 nM and 2.55 µg/mL | 1.5 nM
2 | ANTI-HUMAN ENTPD2 MAB10 (antibody, human IgG1, lambda, V domains shown, also called Anti-ENTPD2 mAb10) VH: QVQLVQSGAEVKKPGSSVKVSCKASGGTFDSYAVSWVRQAPGQGLEWMGRIVPWLGFTRYAQKFQGRVTITADESTSTAYMELSSLRSEDTAVYYCARESPGYRYSFDVWDQGTLVTVSS VL: SYELTQPLSVSVALGQTARITCSGDAIGEKYVYWYQQKPGQAPVLVIYDDNNRPSGIPERFSGSNSGNTATLTISRAQAGDEADYYCASYDLQQARWVFGGGTKLTVLG | no binding (tested: 50 nM) | 0.8 nM | 0.00024 s⁻¹ | 340000 M⁻¹ s⁻¹ | – | no binding (tested: 50 nM) | no binding (tested: 50 nM) | – | 0.8 nM
